The numbers were not newly measured in patent US12478627B2, “Irsogladine for the treatment of eosinophilic gastrointestinal diseases” (EPITHELION SCIENCE BIOTECH, S.L., priority 2019, dated 2025), which cites them from elsewhere.

The data set relates to EoE and EoGIDs. Conditions: patients with EoE or EoGIDs, literature reports.

B1: Resolizumab: mAb against IL-5 (antibody, chains of the INN, looked up, V domains shown)
VH: EVQLVESGGGLVQPGGSLRLSCAVSGLSLTSNSVNWIRQAPGKGLEWVGLIWSNGDTDYNSAIKSRFTISRDTSKSTVYLQMNSLRAEDTAVYYCAREYYGYFDYWGQGTLVTVSS
VL: DIQMTQSPSSLSASVGDRVTITCLASEGISSYLAWYQQKPGKAPKLLIYGANSLQTGVPSRFSGSGSATDYTLTISSLQPEDFATYYCQQSYKFPNTFGQGTKVEVK
With B1, the clinical symptoms result is “did not correspond with clinical improvement” and the tissue eosinophil infiltrate result was “significant reduction”.

B2: Mepolizumab: mAb against IL-5 (antibody, chains of the INN, looked up, V domains shown)
VH: QVTLRESGPALVKPTQTLTLTCTVSGFSLTSYSVHWVRQPPGKGLEWLGVIWASGGTDYNSALMSRLSISKDTSRNQVVLTMTNMDPVDTATYYCARDPPSSLLRLDYWGRGTPVTVSS
VL: DIVMTQSPDSLAVSLGERATINCKSSQSLLNSGNQKNYLAWYQQKPGQPPKLLIYGASTRESGVPDRFSGSGSGTDFTLTISSLQAEDVAVYYCQNVHSFPFTFGGGTKLEIK
For B2, the clinical symptoms result is reported as “did not correspond with clinical improvement” and the tissue eosinophil infiltrate result was “significant reduction”.
